Measurements taken from the DeepSol protein solubility set.

Assay: soluble on expression in E. coli; label from the status in PepcDB or PDB records

| Sequence | soluble on expression in E. coli |
| --- | --- |
| MGSDKIHHHHHHMTRKNKEQPAMSNNTSSNTNGKPQKRLIIITGDKGGVGKSTFARAIFQLYINKNLPCVAYEADLRNPQIERYFQKDYRPIIRYIDIFHRGGADDLLINLDESDCPITLLDLPAQSGCFFESYVKELAFFEVLKTEINCRVTMVSVISRVLDSINVLEKLRELCKDQVDYIVVKNLFHGEEEKFERYNDSSLRQNMLAEGLIELVMPDLFYKSYDFLDRHALTFNEGQTHQETNIVIKSRIKSWVAEFEAQIKPAFNFLGFDIQPDDCYYPAVVEKSKELRENEEKEKAKNQDANLPSEDIAA | not soluble |
| MRLTIPILKEGGMLMKFGFIGAGKVGFSLGKYLADNNQNVVGYYSIINEEAIEAAKFTGSKYYENMEQLVEDSEVLFLTVPDGQIENLWNQLKSSHKNWMAKYNKPLLNNKIVCHCSGALSSDIFSSIAEYESFGYSIHPLFAVSNRYESYKELSDSYFTIEGNIEKINKMKELFESFGNTVCIISKDDKIKYHGAAAIASNLVVGLIGLSEELLKQCGFDEKSAHNALAPIIKGNVKHIVEEGVVEALTGPIERCDVSTVRKHMSVFDKKTNEIYKAVSKEVLEIAKIKNKDRDYSKMEEVLQ | not soluble |
| MGHHHHHHSHDRVNGVAKEYVIYGYGEPLLYPDFFKRIEGFDGKVVISTNGMLDSDILDLADKVGVSIDVNDKFRKGLEVEKALEVLRKLGERGIAEVVVTKDNLELLPAFFERIAEHGSGMLATNVVASNPAIYEQGVYFECSRITVEKVLGLDESILVEAIKDCSRGGGEALRRYKHLLKEVYSKGYSINLLAIFGRKGRVETAFKA | soluble |
| SLCIDRQLYSAVQNSNRQKHQPLNSYVSLSDENESDHLEGSWSEDPEALIIDQESTRTLEREITKVLSPMENKVLDYYLRGYGYVKIAEIMGKTPKSIDNALQRIRGKIRNFSAPVQK | not soluble |
| MGSDKIHHHHHHMKFSIDRDALLKPLQLVSGAVERRHNLPILANLLVEVSGHSLKMTGTDLEVELVGEATVHGDVQEGRTTVPAKKLLDIVKSLPEQTEIKVEQQENKWLLRCGRSRFSLATLPAEEYPNVEAFRPDIEFTLKQGTLKSLIDSTQFSMANQDVRYYLNGLLIETEGNVLRAVATDGHRLALSHRMIEASLPEKQVIVPRKGVVELSRLLDAEDQDITLAIGESAIRATTATAVFTSKLVDGRFPDYRRVLPKGGDKIVIASRNQLKQALLRASILSNEKFRGVRILLEDGLLKITANNPEQEEAEEIIDVDYNSTTLEIGFNVSYLLDVLNSLRSDEVRVTLIDSNSSALIENHVEEDSMYVVMPMRL | not soluble |
| MSLNRKLLTADERQARDTERRSQLDVALMEGVQAILDSDSFKAVLAANAKFHSYSVNNAMLIWLQNPAAERVAGFHTWRKLGRSVKKGAKGIMIYAPRVATNVDAATGSEETHVYFGIEHVFDISQTEGDDIPTLDCPVLTEERGHDVYDRLVTYATRDGLTVSSDVAHELSEAMGYYSAVSKRIWVRPTAKAQMLKTLIHEIAHHLTEGKHTREAHETIAEGVAFQVCACLGIDSGERSFPYIAGWSASEGGTALIKQVLGHIQAITKQVMAIVEPADEANEGAEGHHHHHH | soluble |
| MSRFPRRFIDDSSMEDAGISLCPSIHYRPINPNDLDRLEQIHRDIFPIKYESEFFQSVVNGVDIVSWAAVDRSRPDDHSDELIGFVTAKFVLAKDSEIDDLIHYDSSKGEETLIYILTLGVVETYRNRGIAMSLISEVIKYASGLSVCRGVYLHVIAHNNAAICLYKRLMFRCVRRLHGFYLINRHHFDAFLFVYFINGSRTPCSPLEVAMFVVNYMKSGIKSVASKLANKDEKGLKWLFCKDTDCV | soluble |
| MARHSALAQAERLEPLLTTNPLHGATLERIVTHLHDEYGWEELARRVPVKCFQNEPSVGSSLKFLRKTPWAREQVEAEYVKLARREDANPLIDALKRGQALDFTGVSQTKLHAALGWMLRHVEQNAQNLQLYFLPTLAHIQDVNFWPDAEPLPLLNLAIDRSALGAGDYEPGVVAELLRRGADANDPRFWPPLLHTVDVEGQAYQSKTRAPRTDLFDLLLAHGADPALEDSRGNTARSMAEAYGLRAVINKLNTLPAVSGSLEHHHHHH | soluble |
| DVSGTVCLSALPPEATDTLNLIASDGPFPYSQDGVTFQNRESVLPTQSYGYYHEYTVITPGARTRGTRRIITGEATQEDYYTGDHYATFSLIDQTC | soluble |
| MATDTTVQLRAGWQGRFYEDFAVGDVYKHPYGRTVTETDNVWFTNLTMNANPMHFNAAYASGTEFDERLVNGLFVIALSVGMSVVDVSANATANLGYDDIQHHAPVFHGDTLFAESEVLSKRESESRPHVGMVTTELRTYTQDGELVLSLERTPMVRKRGAADPLEHHHHHH | not soluble |
| GLLMEGDEPAGGKWNFDTENRKPAAPDLLRPRPLRFEPDAEVRAVLDLVEARFPRHFGRLRPFHWATDRAEALRALDHFIRESLPRFGDEQDAMLADDPFLSHALLSSSMNLGLLGPMEVCRRAETEWREGRAPLNAVEGFIRQILGWREYVRGIWTLSGPDYI | not soluble |
| MSNEIYTAITIGPICKTLDKARSVKSFWTASYLFSWIMRELLERLPKEERPEGSFEVLSPHRDGKDVPEETSKKVGLFPDRLFAKGELEEEKLQEIKGKIFIELAEKFKNAFQDEKDGITRKIDTESDPKRKRELEEIQSRYSNAALKGEDIRKYLENYLSISCITVELSSDCNILEQLNSYLDTQELFNKASIQTDEDYMELFIEAPNNPFLKAYSQDRAFPSTSEIAVSGWEQDPPKDENGEVEYTQLTSKPGFRNCYKYLAVIKADGDGFGTYIKELKVDEEKEIKENGEKENELSRFTKSFFEFSVEVANELIQKTKAIPVYIGGDDLFLFAPVLEGNVEKDVFNLIKEIDDLFIQKEIGEGLSMSYGVSIFYYKSPMSEAIDIADSMLRKAKEEKEEKEKKKDTVAISIQKHSGQKIEFLLPCKHSTDKCKQETGLYKKATELIRAFKEDDSMLNSLIYWIEDMYETIFTDEVTLYQERINAVFDNFFDEEIHKENEVFFDLLKKFIHSMHHSEDTPRKLKDKKKLLHGILRYCQFVTAKKEK | not soluble |
| MEEMGSRSDTIMVASLNRETKEIKLVSVYRDTLLQLSDGTYNKANAAYAYGGEEEAVAMLNKNLDLNIEHYVSVDFSVLVHVIDALGGIDINVEEAENGMDIIPYLNNYVVEVIKNTGVDSAPFTQLGQQHLNGVQATAYARLRYGGGDDYKRTERQRQVLEQIAIKAQKAKLSTINKIIDKVFDNVKTNFTLTETIAYAKDVKSYIFGETQGFPYESTTADLDVGNSVVATDLASDVTKLHQFLFGENDYTPSSTVQSISEDISNSTYDTGESYDTEYDEYGYSQDYSGYDSGYTDNSYGTGGYQDSGYGDGSSGNGYTEDTGGDYVPPSDGGGTDSGSSDSNSQIPDTGTGDSGDTGGESLELEHHHHHH | soluble |
| MKEMVGGCCVCADENGWTDNPLIYCDGENCEVAVHQGCYGIQEVPEGEWFCAKCTKASAMMPGSINEATFCCQLCPFDYGALKKTDRNGWAHVICALYIPEVRFGNVHSMEPVILNDVPTDKFNKLCYICNEERPNDAKKGACMSCNKSTCKRSFHVTCAQRKGLLCEEGAISRNVKYCGYCENHLKKAINDPAIKVIPACPPVQRLSKEQDKKKTVLLTSLPLPPPAPRLHMLADPLPIKSNKVNNVLGLGSAINAVSLEERPASGSTVNSGIFVPPPTAFSPPLTTSSRSSVAQDPSPPLTINKNSLSSSGPLIPSTAHLSATTASATPIMANGSTLPPSSETTVGTHCLQQLQIQSAAAAAITQNQIGPSELNGYPAASQLSSFMHEIPARNTTSVASLLPPGAAEYHLNGSGDEEKTVKAVLTAPLTKAKRIRDSKNDMMDKTHKRPRANARPPAVLGSMSSGSSGGTVGKSPSMQRLQNLVAPIVSETVTDFQRDRVADRTAAERRAAAAQSQPSTSTNGGPNVTIPAVVEVHTNSTNSTNHQNNGLTQNAPASTSMQAGTSSNDGVISQNGTSSTSQSNRLNLPSFMEQLLERQWDQGSSLLMANAHFDVAQLLSCLFQLKSENFRLEENLSGLRKRRDHLFALNSRLAEVNTLDVSKRQRSDGLLLQQQIAHHLDPTSIVPKAEVHKQEPLSAPTSVPLPANHSSSLFEDIKAPKATYSRKTPSNIPLTVPLSTAATALTTTTAASSGAPVNSNIQNHRATPSTAGAPMAATPIMTAVTSANELAALSPERAQALLNMYRMPLDANVAAQLSMITNFPGQVNPSLFSRLLAVNMMNGGLQPNGQPLSALPPPTSATPNGK | soluble |
| MTTDQIAAFCLQLPGAREDLKWGSNRVFSVAGNKMFAILDFVDKDGGLAFKVGSELFLGYVDRPGIRPAPYLARAHWIVMARPYPMKAAELREALVRSHQLVVARLPKRQRLGLVLDA | not soluble |
| MAHHHHHHMPTTSMQAECDKIRSSGNECRRKFSGGNLLVVATDMDGTILDPKHRLTERTKDTLYELSTRGVHIIFATGRHHSCVHATRRDLLEHYKRRSTARGVPDSPTTGYDGFYIISSNGARVHNPNGDLIFLRDLDSDVVRVLYERFGIRDHGDDPRKVISVSAYQTEKWWINRTIMSDEESLAMFGVVPELHPDLKEFPTTGVGKVCFRCYDRDILHQYEAEIKEIFHGRATAVMSSEICLDVMAAEVSKAAALREIGRILNFDPEREAIAFGDSMNDGDMLCSVAKGCIMDNGQSRLKESLPHLEVVGSSSEDGVARKLQEVFQIFHE | soluble |
| VAEQKVKRNVELAGVDVILVHRMLKNEVPVSEYLFMTDVVAQCLDESVRKLATPLTHDFEGIGETSTHYIDLATSDMPPAVPDHSFFGLLWADVKFEWHALPYLLGFKKACAGFRSLGRGATEEPAEMG | not soluble |
| MAIAPQQIQERLKQEQYQKFVVADIGNFPHCLAQTPEGIASGQRYQKYSTNSLSRTPPFSQWGAPQLLTPKSAQEYIKFAQQRNKKSSFKIDGEAVRVSECSNFAYHSAGVLLDDPQIRTQYDVAVIGSMHSNGRYLHNITLLVPKGSRLPQPPQQLTAEVFPIGTLIVDPWAVGMGHPPEQALAIPKEQFAYNRSLFPATVNYQSALDESLTSTRTGQLTPYTGTPSRTGRQEVRAESQFPGTRRPVSATIPGNFAAYHELWRNAFQEIMNDPRHQLHRNDVEYKKIHAIRTVLDDYTKGGNTWWAKFRRIFTFHWNRHHVKVVDDIVKEIDAGNYTTSRALVDRLDNLAISLGSKLNPKGTLKEQIGFIKIQEQNPVEEIENLSRPNLT | not soluble |
| MGSDKIHHHHHHENLYFQGMKIALIIENSQAAKNAVVHEALTTVAEPLGHKVFNYGMYTAEDKASLTYVMNGLLAGILLNSGAADFVVTGCGTGMGSMLAANAMPGVFCGLVIDPTDAFLFGQINDGNAISMPYSKGFGWAAELNLQDVYRKLFDGERGLGYPRERAEIMRKNRGILRELKDASCRDMLTVLKTVDQDLLRAAIAGEKFAELFYPNCKDDAIANYLRSLDA | soluble |
| MRNVELIFIPTPTVGHLVPFLEFARRLIEQDDRIRITILLMKLQGQSHLDTYVKSIASSQPFVRFIDVPELEEKPTLGSTQSVEAYVYDVIERNIPLVRNIVMDILTSLALDGVKVKGLVVDFFCLPMIDVAKDISLPFYVFLTTNSGFLAMMQYLADRHSRDTSVFVRNSEEMLSIPGFVNPVPANVLPSALFVEDGYDAYVKLAILFTKANGILVNSSFDIEPYSVNHFLQEQNYPSVYAVGPIFDLKAQPHPEQDLTRRDELMKWLDDQPEASVVFLCFGSMARLRGSLVKEIAHGLELCQYRFLWSLRKEEVTKDDLPEGFLDRVDGRGMICGWSPQVEILAHKAVGGFVSHCGWNSIVESLWFGVPIVTWPMYAEQQLNAFLMVKELKLAVELKLDYRVHSDEIVNANEIETAIRYVMDTDNNVVRKRVMDISQMIQRATKNGGSSFAAIEKFIYDVIGIKP | soluble |
